Data: US20250188133A1, “CHIMERIC BACTERIOCINS AND METHOD FOR THE CONTROL OF PSEUDOMONAS” (priority 2022, published 2025)

What was measured:
Experiment in all cases: agar disc-diffusion assay
Format in all cases: cell-based
[1] = test system: P. aeruginosa 13-18499; conditions: strain 13-18499; 0.3, 3 and 30 μg of protein spotted on discs on CAA agar lawn, overnight
Summary of the method: (§1)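 Read-out: bacteriocin inhibition zones after overnight incubation at 37° C. Lawns came from CAA cultures set to OD595=1.0 and diluted 100×, swabbed on 1.5% CAA agar; discs of 6 mm received 0.3-30 μg chimeric pyocin.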

[2] = test system: P. aeruginosa A19; conditions: strain A19; 0.3, 3 and 30 μg of protein spotted on discs on CAA agar lawn, overnight
Summary of the method: as §1

[3] = test system: P. aeruginosa ATCC 19660; conditions: strain ATCC 19660; 0.3, 3 and 30 μg of protein spotted on discs on CAA agar lawn, overnight
Summary of the method: as §1

[4] = test system: P. aeruginosa ATCC 29260; conditions: strain ATCC 29260; 0.3, 3 and 30 μg of protein spotted on discs on CAA agar lawn, overnight
Summary of the method: as §1

[5] = test system: P. aeruginosa BI80; conditions: strain BI80; 0.3, 3 and 30 μg of protein spotted on discs on CAA agar lawn, overnight
Summary of the method: as §1

[6] = test system: P. aeruginosa BL77; conditions: strain BL77; 0.3, 3 and 30 μg of protein spotted on discs on CAA agar lawn, overnight
Summary of the method: as §1

[7] = test system: P. aeruginosa BR79; conditions: strain BR79; 0.3, 3 and 30 μg of protein spotted on discs on CAA agar lawn, overnight
Summary of the method: as §1

[8] = test system: P. aeruginosa Boston 41501 (ATCC 27853); conditions: strain Boston; 0.3, 3 and 30 μg of protein spotted on discs on CAA agar lawn, overnight
Summary of the method: as §1

[9] = test system: P. aeruginosa Bu002; conditions: strain Bu002; 0.3, 3 and 30 μg of protein spotted on discs on CAA agar lawn, overnight
Summary of the method: as §1

[10] = test system: P. aeruginosa HP1; conditions: strain HP1; 0.3, 3 and 30 μg of protein spotted on discs on CAA agar lawn, overnight
Summary of the method: as §1

[11] = test system: P. aeruginosa HP40; conditions: strain HP40; 0.3, 3 and 30 μg of protein spotted on discs on CAA agar lawn, overnight
Summary of the method: as §1

[12] = test system: P. aeruginosa HP41; conditions: strain HP41; 0.3, 3 and 30 μg of protein spotted on discs on CAA agar lawn, overnight
Summary of the method: as §1

[13] = test system: P. aeruginosa HP52; conditions: strain HP52; 0.3, 3 and 30 μg of protein spotted on discs on CAA agar lawn, overnight
Summary of the method: as §1

[14] = test system: P. aeruginosa HP6; conditions: strain HP6; 0.3, 3 and 30 μg of protein spotted on discs on CAA agar lawn, overnight
Summary of the method: as §1

[15] = test system: P. aeruginosa HP75; conditions: strain HP75; 0.3, 3 and 30 μg of protein spotted on discs on CAA agar lawn, overnight
Summary of the method: as §1

[16] = test system: P. aeruginosa HP7; conditions: strain HP7; 0.3, 3 and 30 μg of protein spotted on discs on CAA agar lawn, overnight
Summary of the method: as §1

[17] = test system: P. aeruginosa NCTC 13437; conditions: strain NCTC 13437; 0.3, 3 and 30 μg of protein spotted on discs on CAA agar lawn, overnight
Summary of the method: as §1

[18] = test system: P. aeruginosa NCTC 13921; conditions: strain NCTC 13921; 0.3, 3 and 30 μg of protein spotted on discs on CAA agar lawn, overnight
Summary of the method: as §1

[19] = test system: P. aeruginosa PA14; conditions: strain PA14; 0.3, 3 and 30 μg of protein spotted on discs on CAA agar lawn, overnight
Summary of the method: as §1

[20] = test system: P. aeruginosa PAO1; conditions: strain PAO1; 0.3, 3 and 30 μg of protein spotted on discs on CAA agar lawn, overnight
Summary of the method: as §1

[21] = test system: P. aeruginosa Pr335; conditions: strain Pr335; 0.3, 3 and 30 μg of protein spotted on discs on CAA agar lawn, overnight
Summary of the method: as §1

[22] = test system: P. aeruginosa UR78; conditions: strain UR78; 0.3, 3 and 30 μg of protein spotted on discs on CAA agar lawn, overnight
Summary of the method: as §1

B1: S5-PmnH (protein)
chain: MSNDNEVPGSMVIVAQGPDDQYAYEVPPIDSAAVAGNMFGDLIQREIYLQKNIYYPVRSIFEQGTKEKKEINKKVSDQVDGLLKQITQGKREATRQERVDVMSAVLHKMESDLEGYKKTFTKGPFIDYEKQSSLSIYEAWVKIWEKNSWEERKKYPFQQLVRDELERAVAYYKQDSLSEAVKVLRQELNKQKALKEKEDLSQLERDYRTRKANLEMKVQSELDQAGSALPPLVSPTPEQWLERATRLVTQAIADKKQLQTTNNTLIKNSPTPLEKQKAIYNGELLVDEIASLQARLVKLNAETTRRRTEKELTPDEKAAYTDAVSFVSTANEQMLQKYGANLSKVAQDMQAEIAGKKVRSYAEAMATFEKISANPAMKLNALDTQAVVDALNALDKASFADNITRLGKAFGVVGKVVQAEAIREKTVSGFQTGDWKPLMLELEAMAVGTGAGILLATSMAFFFPVFASAAAGVVVVALMMAATAAYFDAAKVDEINNLILN
modifications: Chimeric S5-PmnH
Activity in agar disc-diffusion assay [1]: ** (activity detected with 3 μg of protein)
Activity in agar disc-diffusion assay [2]: *** (activity detected with 0.3 μg of protein)
Activity in agar disc-diffusion assay [3]: ** (activity detected with 3 μg of protein)
Activity in agar disc-diffusion assay [4]: *** (activity detected with 0.3 μg of protein)
Activity in agar disc-diffusion assay [5]: *** (activity detected with 0.3 μg of protein)
Activity in agar disc-diffusion assay [6]: ** (activity detected with 3 μg of protein)
Activity in agar disc-diffusion assay [7]: ** (activity detected with 3 μg of protein)
Activity in agar disc-diffusion assay [8]: *** (activity detected with 0.3 μg of protein)
Activity in agar disc-diffusion assay [9]: *** (activity detected with 0.3 μg of protein)
Activity in agar disc-diffusion assay [10]: *** (activity detected with 0.3 μg of protein)
Activity in agar disc-diffusion assay [11]: *** (activity detected with 0.3 μg of protein)
Activity in agar disc-diffusion assay [12]: *** (activity detected with 0.3 μg of protein)
Activity in agar disc-diffusion assay [13]: ** (activity detected with 3 μg of protein)
Activity in agar disc-diffusion assay [14]: *** (activity detected with 0.3 μg of protein)
Activity in agar disc-diffusion assay [15]: ** (activity detected with 3 μg of protein)
Activity in agar disc-diffusion assay [16]: *** (activity detected with 0.3 μg of protein)
Activity in agar disc-diffusion assay [17]: * (activity detected only with 30 μg of protein)
Activity in agar disc-diffusion assay [18]: *** (activity detected with 0.3 μg of protein)
Activity in agar disc-diffusion assay [19]: *** (activity detected with 0.3 μg of protein)
Activity in agar disc-diffusion assay [20]: *** (activity detected with 0.3 μg of protein)
Activity in agar disc-diffusion assay [21]: *** (activity detected with 0.3 μg of protein)
Activity in agar disc-diffusion assay [22]: *** (activity detected with 0.3 μg of protein)
